Data taken from paper PMC6386368, “Multimerization of Homo sapiens TRPA1 ion channel cytoplasmic domains” (PLoS ONE, 2019).

B1: TRPA1 ARD construct (N-terminal ankyrin repeat domains, amino acids 446-639) (domain or fragment, human, UniProt O75762 446-639, looked up)
chain: KKSPLHFAASYGRINTCQRLLQDISDTRLLNEGDLHGMTPLHLAAKNGHDKVVQLLLKKGALFLSDHNGWTALHHASMGGYTQTMKVILDTNLKCTDRLDEDGNTALHFAAREGHAKAVALLLSHNADIVLNKQQASFLHLALHNKRKEVVLTIIRSKRWDECLKIFSHNSPGNKCPITEMIEYLPECMKVLLD
notes: human TRPA1 ankyrin repeat domains with resolvable density in the cryoEM structure, amino acids 446-639; Cloned into pET28b (Nhe I and Sac I) in frame with an N-terminal poly-histidine tag; also called ARDs; N-terminal ARD; source: E. coli BL21(DE3), co-expressed with MBPCC1, in cleared lysate; not shown: poly-histidine, N-terminal, kept
B2: MBPCC1: maltose-binding protein fusion of the human TRPA1 C-terminal coiled-coil CC1 (amino acids A1036-T1078) (domain or fragment, UniProt O75762 1036-1078, looked up)
chain: ADKSLEMEILKQKYRLKDLTFLLEKQHELIKLIIQKMEIISET
notes: human TRPA1 C-terminal coiled-coil CC1, amino acids A1036-T1078; source: E. coli BL21(DE3), purified (amylose resin, SEC); also co-expressed with ARD in BL21(DE3), in cleared lysate; not shown: poly-histidine, N-terminal, kept; MBP, N-terminal, kept

Tests used:
[1] = biological target: B2; test: pull-down; amylose resin co-purification from cleared lysate of bacteria co-expressing ARD and MBPCC1; incubation and 4 washes at 4 C, Buffer A1T, with or without IP6 and/or AITC; anti-His Western blot; details: partners not purified
[2] = biological target: the molecule itself; test: SEC-MALS; MBPCC1 at 15 mg/ml (~300 uM), absence of IP6, Superdex 200 column
[3] = biological target: the molecule itself; test: SEC-MALS; MBPCC1 diluted to 1 mg/ul (~20 uM) as printed, absence of IP6, Superdex 200 column

Binder	ARD:CC ratio [1]	stoichiometry N [2]	stoichiometry N [3]
B1	~0.3		
B2		4	3
